The text below walks through data of patent publication US20220062371A1, “LIGAND-DRUG-CONJUGATES AS SUBSTRATES FOR SELECTIVE CLEAVAGE BY THE EXOPEPTIDASE ACTIVITY OF CATHEPSIN B” (DEBIOPHARM RESEARCH & MANUFACTURING S.A., priority 2017, published 2022).

The assay deals with Recombinant human Cathepsin B (human) (UniProt P07858). Put plainly: cell-based or functional assay.

Take “ADC1, AF-Arg-Lys(PEG4-Mal-trastuzumab)-Phe-OH (antibody)”: the T 1/2 of release of AF-Arg by Cat B is less than 5 min.
